Reference: the supplement of paper PMC7877785
± gives the uncertainty stated by the source.

Assay: self-splicing fitness, log relative to wild type (ln ratio); higher = more splicing; Tetrahymena group I intron in knt gene, E. coli kanamycin selection, DiMSum; sequences stand for … in CUCUCU…GGAGGGAAAAGUUAUCAGGCAUGCACCUGGUAGCUAGUCUUUAAACCAAUAGAUUGCAUCGGUUUAAAAGGCAAGACCGUCAAAUUGCGGGAAAGGGGUCAACAGCCGUUCAGUACCAAGUCUCAGGGGAAACUUUGAGAUGGCCUUGCAAAGGGUAUGGUAAUAAGCUGACGGACAUGGUCCUAACCACGCAGCCAAGUCCUAAGUCAACAGAUCUUCUGUUGAUAUGGAUGCAGUUCACAGACUAAAUGUCGGUCGGGGAAGAUGUAUUCUUCUCAUAAGAUAUAGUCGGACCUCUCCUUAAUGGGAGCUAGCGGAUGAAGUGAUGCAACACUGGAGCCGCUGGGAACUAAUUUGUAUGCGAAAGUAUAUUGAUUAGUUUUGGAGUACUCGUGGUCG
How it was run: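 Library with all eight P1ex-region intron nucleotides randomised, intron inside the knt kanamycin-resistance gene on pET-22b(+), in E. coli BL21(DE3). Cells grew overnight at 37°C or 30°C on LB agar with or without 25 μg/mL kanamycin (plus 100 μg/mL carbenicillin, 50 μM IPTG, 0.2% rhamnose), in six replicate transformations. Pooled colonies were amplicon-sequenced on Illumina HiSeq 2500. DiMSum fitness is the error-weighted combination of wild-type-normalised replicate fold changes, kanamycin versus none.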

GCUAAGCAAUAUUACGUACA
self-splicing fitness (ln) (30 °C): -1.38 ± 0.1
self-splicing fitness (ln) (37 °C): -0.974 ± 0.13

GCUAAGCAAUAUUACGUACU
self-splicing fitness (ln) (30 °C): -0.353 ± 0.051
self-splicing fitness (ln) (37 °C): -0.348 ± 0.068

GCUAAGCAAUAUUACGUAGU
self-splicing fitness (ln) (30 °C): -4.17 ± 0.31
self-splicing fitness (ln) (37 °C): -2.32 ± 0.19

GCUAAGCAAUAUUACGUAUU
self-splicing fitness (ln) (30 °C): -1.16 ± 0.079
self-splicing fitness (ln) (37 °C): -1.02 ± 0.11

GCUAAGCAAUAUUACGUUUC
self-splicing fitness (ln) (30 °C): -3 ± 0.16
self-splicing fitness (ln) (37 °C): -0.945 ± 0.12

GCUAAGCAAUAUUACGUUUU
self-splicing fitness (ln) (30 °C): -2 ± 0.093
self-splicing fitness (ln) (37 °C): -0.945 ± 0.1

GCUCAGCAAUAUUACGCAGA
self-splicing fitness (ln) (30 °C): -3.72 ± 0.2
self-splicing fitness (ln) (37 °C): -2.88 ± 0.2

GCUCAGCAAUAUUACGCAUG
self-splicing fitness (ln) (30 °C): -1.66 ± 0.1
self-splicing fitness (ln) (37 °C): -1.49 ± 0.1

GCUCAGCAAUAUUACGCCAU
self-splicing fitness (ln) (30 °C): -3.28 ± 0.48
self-splicing fitness (ln) (37 °C): -2.26 ± 0.36

GCUCAGCAAUAUUACGCCCU
self-splicing fitness (ln) (30 °C): -1.18 ± 0.19
self-splicing fitness (ln) (37 °C): 0.764 ± 0.18

GCUCAGCAAUAUUACGCCGG
self-splicing fitness (ln) (30 °C): -2.03 ± 0.15
self-splicing fitness (ln) (37 °C): -0.855 ± 0.17

GCUCAGCAAUAUUACGCCUC
self-splicing fitness (ln) (30 °C): -1.49 ± 0.2
self-splicing fitness (ln) (37 °C): 0.48 ± 0.22

GCUCAGCAAUAUUACGCCUG
self-splicing fitness (ln) (30 °C): -2.66 ± 0.26
self-splicing fitness (ln) (37 °C): -2.42 ± 0.32

GCUCAGCAAUAUUACGCGAA
self-splicing fitness (ln) (30 °C): -0.998 ± 0.11
self-splicing fitness (ln) (37 °C): -0.98 ± 0.12

GCUCAGCAAUAUUACGCGCG
self-splicing fitness (ln) (30 °C): -1.03 ± 0.071
self-splicing fitness (ln) (37 °C): -0.194 ± 0.091

GCUCAGCAAUAUUACGGAUC
self-splicing fitness (ln) (30 °C): -0.0202 ± 0.09
self-splicing fitness (ln) (37 °C): -0.0789 ± 0.11

GCUCAGCAAUAUUACGGAUU
self-splicing fitness (ln) (30 °C): -0.53 ± 0.051
self-splicing fitness (ln) (37 °C): 0.362 ± 0.075

GCUCAGCAAUAUUACGGCCC
self-splicing fitness (ln) (30 °C): -1.13 ± 0.078
self-splicing fitness (ln) (37 °C): -0.029 ± 0.1

GCUCAGCAAUAUUACGGCUU
self-splicing fitness (ln) (30 °C): -0.675 ± 0.066
self-splicing fitness (ln) (37 °C): -0.385 ± 0.071

GCUCAGCAAUAUUACGGGAU
self-splicing fitness (ln) (30 °C): -1.16 ± 0.097
self-splicing fitness (ln) (37 °C): -0.195 ± 0.11

GCUCAGCAAUAUUACGGUCC
self-splicing fitness (ln) (30 °C): -0.681 ± 0.065
self-splicing fitness (ln) (37 °C): 0.158 ± 0.087

GCUCAGCAAUAUUACGUAAG
self-splicing fitness (ln) (30 °C): -0.791 ± 0.043
self-splicing fitness (ln) (37 °C): -0.374 ± 0.067

GCUCAGCAAUAUUACGUAGU
self-splicing fitness (ln) (30 °C): -0.46 ± 0.059
self-splicing fitness (ln) (37 °C): -0.522 ± 0.075

GCUCAGCAAUAUUACGUGCC
self-splicing fitness (ln) (37 °C): -2.56 ± 0.23

GCUGAGCAAUAUUACGAAAG
self-splicing fitness (ln) (30 °C): -1.75 ± 0.2
self-splicing fitness (ln) (37 °C): -1.46 ± 0.23

GCUGAGCAAUAUUACGACUA
self-splicing fitness (ln) (30 °C): -1.55 ± 0.22
self-splicing fitness (ln) (37 °C): -1.72 ± 0.21

GCUGAGCAAUAUUACGAGAU
self-splicing fitness (ln) (30 °C): -3.06 ± 0.34
self-splicing fitness (ln) (37 °C): -2.09 ± 0.31

GCUGAGCAAUAUUACGAGCG
self-splicing fitness (ln) (30 °C): -0.822 ± 0.23
self-splicing fitness (ln) (37 °C): -0.795 ± 0.21

GCUGAGCAAUAUUACGAGUA
self-splicing fitness (ln) (30 °C): -2.25 ± 0.31
self-splicing fitness (ln) (37 °C): -1.72 ± 0.35

GCUGAGCAAUAUUACGAUAC
self-splicing fitness (ln) (30 °C): -1.15 ± 0.35
self-splicing fitness (ln) (37 °C): 0.491 ± 0.22

GCUGAGCAAUAUUACGAUCC
self-splicing fitness (ln) (30 °C): -1.34 ± 0.15
self-splicing fitness (ln) (37 °C): 0.743 ± 0.24

GCUGAGCAAUAUUACGCAUC
self-splicing fitness (ln) (30 °C): -1.72 ± 0.26
self-splicing fitness (ln) (37 °C): -0.374 ± 0.33

GCUGAGCAAUAUUACGCAUU
self-splicing fitness (ln) (30 °C): -2.67 ± 0.13
self-splicing fitness (ln) (37 °C): -1.63 ± 0.2

GCUGAGCAAUAUUACGCCUG
self-splicing fitness (ln) (30 °C): -1.28 ± 0.23

GCUGAGCAAUAUUACGCGUG
self-splicing fitness (ln) (30 °C): -1.54 ± 0.11
self-splicing fitness (ln) (37 °C): -0.878 ± 0.13

GCUGAGCAAUAUUACGCUCG
self-splicing fitness (ln) (30 °C): -2.7 ± 0.36
self-splicing fitness (ln) (37 °C): -0.729 ± 0.26

GCUGAGCAAUAUUACGGAAC
self-splicing fitness (ln) (30 °C): -2.25 ± 0.3
self-splicing fitness (ln) (37 °C): -0.857 ± 0.3

GCUGAGCAAUAUUACGGACG
self-splicing fitness (ln) (30 °C): -0.688 ± 0.1
self-splicing fitness (ln) (37 °C): -0.674 ± 0.11
